Experimental data: patent US20240156979A1

Biological target: Siglec-specific antibody for Siglec-9 (R&D Systems MAB1139)
Test: ForteBio Octet; construct captured on AHC biosensor, antibody titrated; 1:1 fit

Question: How did the Kd turn out when Sig-9-Fc (Fc fusion) was run?
Answer: Its Kd is under 10 nM.
